IntAct's records for PubMed 22939624

B1: non-specific protein-tyrosine kinase (Homo sapiens), A9UEZ6 (parent)
chain: MVDPVGFAEAWKAQFPDSEPPRMELRSVGDIEQELERCKASIRRLEQEVNQERFRMIYLQTLLAKEKKSYDRQRWGFRRAAQAPDGASEPRASASRPQPAPADGADPPPAEEPEARPDGEGSPGKARPGTARRPGAAASGERDDRGPPASVAALRSNFERIRKGHGQPGADAEKPFYVNVEFHHERGLVKVNDKEVSDRISSLGSQAMQMERKKSQHGAGSSVGDASRPPYRGRSSESSCGVDGDYEDAELNPRFLKDNLIDANGGSRPPWPPLEYQPYQSIYVGGMMEGEGKGPLLRSQSTSEQEKRLTWPRRSYSPRSFEDCGGGYTPDCSSNENLTSSEEDFSSGQSSRVSPSPTTYRMFRDKSRSPSQNSQQSFDSSSPPTPQCHKRHRHCPVVVSEATIVGVRKTGQIWPNDGEGAFHGDADGSFGTPPGYGCAADRAEEQRRHQDGLPYIDDSPSSSPHLSSKGRGSRDALVSGALESTKASELDLEKGLEMRKWVLSGILASEETYLSHLEALLLPMKPLKAAATTSQPVLTSQQIETIFFKVPELYEIHKEFYDGLFPRVQQWSHQQRVGDLFQKLASQLGVYRVLGYNHNGEWCEAQTKNGQGWVPSNYITPVNSLEKHSWYHGPVSRNAAEYLLSSGINGSFLVRESESSPGQRSISLRYEGRVYHYRINTASDGKLYVSSESRFNTLAELVHHHSTVADGLITTLHYPAPKRNKPTVYGVSPNYDKWEMERTDITMKHKLGGGQYGEVYEGVWKKYSLTVAVKTLKEDTMEVEEFLKEAAVMKEIKHPNLVQLLGVCTREPPFYIITEFMTYGNLLDYLRECNRQEVNAVVLLYMATQISSAMEYLEKKNFIHRDLAARNCLVGENHLVKVADFGLSRLMTGDTYTAHAGAKFPIKWTAPESLAYNKFSIKSDVWAFGVLLWEIATYGMSPYPGIDLSQVYELLEKDYRMERPEGCPEKVYELMRACWQWNPSDRPSFAEIHQAFETMFQESSISDEVEKELGKQGVRGAVSTLLQAPELPTKTRTSRRAAEHRDTTDVPEMPHSKGQGESDPLDHEPAVSPLLPRKERGPPEGGLNEDERLLPKDKKTNLFSALIKKKKKTAPTPPKRSSSFREMDGQPERRGAGEEEGRDISNGALAFTPLDTADPAKSPKPSNGAGVPNGALRESGGSGFRSPHLWKKSSTLTSSRLATGEEEGGGSSSKRFLRSCSASCVPHGAKDTEWRSVTLPRDLQSTGRQFDSSTFGGHKSEKPALPRKRAGENRSDQVTRGTVTPPPRLVKKNEEAADEVFKDIMESSPGSSPPNLTPKPLRRQVTVAPASGLPHKEEAGKGSALGTPAAAEPVTPTSKAGSGAPGGTSKGPAEESRVRRHKHSSESPGRDKGKLSRLKPAPPPPPAASAGKAGGKPSQSPSQEAAGEAVLGAKTKATSLVDAVNSDAAKPSQPGEGLKKPVLPATPKPQSAKPSGTPISPAPVPSTLPSASSALAGDQPSSTAFIPLISTRVSLRKTRQPPERIASGAITKGVVLDSTEALCLAISRNSEQMASHSAVLEAGKNLYTFCVSYVDSIQQMRNKFAFREAINKLENNLRELQICPATAGSGPAATQDFSKLLSSVKEISDIVQR

Variants of: B1
Settings: with hs90b_human HSP90AB1, P08238
hs90b_human HSP90AB1, P08238, sequence (P08238 whole entry): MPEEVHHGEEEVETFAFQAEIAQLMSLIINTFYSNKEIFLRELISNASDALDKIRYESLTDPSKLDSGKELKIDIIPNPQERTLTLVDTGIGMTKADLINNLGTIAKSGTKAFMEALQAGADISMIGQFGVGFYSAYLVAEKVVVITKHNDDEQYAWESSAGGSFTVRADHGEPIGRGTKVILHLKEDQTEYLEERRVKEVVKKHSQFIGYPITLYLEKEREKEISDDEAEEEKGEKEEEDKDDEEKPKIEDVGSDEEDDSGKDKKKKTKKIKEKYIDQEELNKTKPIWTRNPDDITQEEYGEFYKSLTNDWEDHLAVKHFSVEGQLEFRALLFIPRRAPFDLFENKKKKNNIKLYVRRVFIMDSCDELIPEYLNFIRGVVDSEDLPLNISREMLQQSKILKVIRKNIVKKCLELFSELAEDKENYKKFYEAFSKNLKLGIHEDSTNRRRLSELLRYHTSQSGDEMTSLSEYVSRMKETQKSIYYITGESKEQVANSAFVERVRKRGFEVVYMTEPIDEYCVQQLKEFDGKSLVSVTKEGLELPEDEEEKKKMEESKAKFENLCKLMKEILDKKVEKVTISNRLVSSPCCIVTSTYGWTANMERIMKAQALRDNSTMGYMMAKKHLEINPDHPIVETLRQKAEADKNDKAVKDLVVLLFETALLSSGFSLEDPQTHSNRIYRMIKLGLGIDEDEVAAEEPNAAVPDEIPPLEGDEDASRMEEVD

Row | effect of a mutation on the interaction | Variant
1 | increasing interaction | M975I
2 | decreasing interaction | M747I
